Test results published in US20170044230A1 (USTAV ORGANICKE CHEMIE A BIOCHEMIE AV CR, V.V.I., priority 2014, published 2017).
Non-standard residues stand in square brackets, D forms with d. Residues, ends and D or L forms follow the SMILES beside them. No end group written: not given here. *: point of attachment. 1Nal = N[C@@H](Cc1cccc2ccccc12)C(=O)O; Palmitoyl = CCCCCCCCCCCCCCCC(=O)*; Myristoyl = CCCCCCCCCCCCCC(=O)*; Cha = N[C@@H](CC1CCCCC1)C(=O)O; Decanoyl = CCCCCCCCCC(=O)*; Octanoyl = CCCCCCCC(=O)*; Dap = NC[C@H](N)C(=O)O; Sar = CNCC(=O)O

Key:
human GHS-R1a receptor = target: T1, human GHS-R1a receptor (Homo sapiens, UniProt Q92847); assay: Competitive binding studies (displacement of 125I-ghrelin); details: for affinity for GHS-R1a compared with ghrelin: in words; for % of ghrelin binding: relative to ghrelin = 100
T1 construct: purchased Multispan, Hayward, Calif., USA; host or cells: HEK293T cells, isolated plasma membranes
Procedure: Isolated plasma membranes from the HEK293T cells with transfected human GHS-R1a receptor (Multispan, Hayward, Calif., USA) were used. […] Experiments were carried out in duplicates at least three times. Competitive binding curves were plotted using GraphPad Prism Software (San Diego, Calif., USA) while comparing the best fit for single binding sites models.

fed C57BL/6 male mice = assay: Effect of SC administered ghrelin analogs on food intake; assay type: in vivo; details: for maximal effect at 5 mg/kg on food intake: SC 5 mg/kg, evaluated 480 min after administration; for ED50 (250 min after injection), effect on food intake: SC, fed mice
Procedure: All of the experiments followed the ethical guidelines for animal experiments and Czech Republic law 246/1992 and were approved by the committee for experiments with laboratory animals of the Academy of Sciences of the Czech Republic. Male C57BL/6 mice (Charles River, Germany) were housed at a temperature 22±2° C. under a daily cycle of 12/12 h light/dark (light from 6:00) with free access to water and a standard chow diet St-1 which contained […] of calories from protein, fat and carbohydrate, respectively, and its energy content was 3.4 kcal/g (Mlýn Kocanda, Praha, Czech Republic). Mice were placed into separate cages for one week before experiment, they had free access to water and food pellets. Closely before the experiment, the food pellets were removed from the cages. […] 15 min after the injection, mice were given preweighed food pellets. Food intake was monitored for 8-10 hours at 30-min intervals. Mice had free access to water during the experiment. Experiments were performed at least twice for each tested compound, each experimental group had at least 5 mice.
Data from food intake experiments were analyzed by one-way ANOVA followed by Dunnett's post-hoc test using GraphPad Prism Software (San Diego, Calif., USA), P<0.05 was considered statistically significant. ED50 values were calculated using GraphPad Prism Software as the dose of the tested compound required to elicit half-maximal effect at 250 min after administration of the corresponding compound.
Food intake was monitored for […] after administration of the compounds. ED50 values were determined 250 min after administration. Maximal effect on food intake was evaluated […] after administration of the compounds at a dose of 5 mg/kg of body weight. NT—not tested.

[1] = target: T2, human GHS-R1a receptor (growth hormone secretagogue receptor 1a) (human, UniProt Q92847 1-366); assay: cell-based or functional assay
[2] = target: T2, human GHS-R1a receptor (growth hormone …); assay: competitive displacement of 125I-ghrelin, membranes of HEK293T cells with transfected human GHS-R1a
Procedure: Competitive binding studies were performed according to the principles of Motulsky and Neubig (Motulsky & Neubig, 2002). Isolated plasma membranes from the HEK293T cells with transfected human GHS-R1a receptor (Multispan, Hayward, Calif., USA) were used. […] The binding reaction was stopped by the addition of ice-cold washing buffer (20 mM Tris pH 7.4, 10 mM MgCl₂, 2.5 mM EDTA, 0.015% Triton X-100) followed by rapid filtration over GF/C filters (Whatman, Clifton, N.J., USA) presoaked with 0.5% PEI in binding buffer using a Brandel cell harvester (Brandel Inc., Gaithersburg, Md., USA). Bound radioactivity was determined by gamma counting (Wizard 1470 Automatic Gamma Counter; PerkinElmer Life and Analytical Sciences, Waltham, Mass.).

T1 sequence (Q92847 whole entry): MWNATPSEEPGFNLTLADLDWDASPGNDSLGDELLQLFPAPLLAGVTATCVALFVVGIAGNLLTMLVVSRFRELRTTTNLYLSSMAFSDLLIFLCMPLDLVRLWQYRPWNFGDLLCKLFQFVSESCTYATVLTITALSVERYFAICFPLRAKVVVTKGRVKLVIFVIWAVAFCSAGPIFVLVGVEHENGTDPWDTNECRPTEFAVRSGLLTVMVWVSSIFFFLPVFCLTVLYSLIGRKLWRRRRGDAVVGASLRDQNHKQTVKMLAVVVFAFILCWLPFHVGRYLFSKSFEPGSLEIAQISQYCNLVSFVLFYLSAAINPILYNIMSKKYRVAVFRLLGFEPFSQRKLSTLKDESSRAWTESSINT
T2 sequence (Q92847 whole entry): as above

Molecule | % of ghrelin binding [2] [%] | Ki [2] [nM] | further results
CCCCCCCCCC(=O)NC[C@H](NC(=O)[C@H](CO)NC(=O)CNC)C(=O)N[C@@H](Cc1ccccc1)C(=O)N[C@@H](CC(C)C)C(=O)N[C@@H](CO)C(=O)N1CCC[C@H]1C(=O)N[C@@H](CCC(=O)O)C(=O)N[C@@H](Cc1c[nH]cn1)C(=O)N[C@@H](CCC(N)=O)C(=O)N[C@@H](CCCCN)C(=O)N[C@@H](C)C(=O)N[C@@H](CCC(N)=O)C(=O)N[C@@H](CCC(N)=O)C(=O)N[C@@H](CCCNC(=N)N)C(=O)N[C@@H](CCCCN)C(=O)N[C@@H](CCC(=O)O)C(=O)N[C@@H](CO)C(=O)N[C@@H](CCCCN)C(=O)N[C@@H](CCCCN)C(=O)N1CCC[C@H]1C(=O)N1CCC[C@H]1C(=O)N[C@@H](C)C(=O)N[C@@H](CCCCN)C(=O)N[C@@H](CC(C)C)C(=O)N[C@@H](CCC(N)=O)C(=O)N1CCC[C@H]1C(=O)N[C@@H](CCCNC(=N)N)C(=O)O [Analog 1] | – | – | affinity for GHS-R1a compared with ghrelin (human GHS-R1a receptor): higher affinities for GHS-R1a than ghrelin; % of ghrelin binding (human GHS-R1a receptor): 183%; maximal effect at 5 mg/kg on food intake (fed C57BL/6 male mice): 218.8 % of Dpr^3ghr; ED50 (250 min after injection), effect on food intake (fed C57BL/6 male mice): 3.90 mg/kg
CCCCCCCCCC(=O)NC[C@H](NC(=O)[C@H](CO)NC(=O)CNC)C(=O)N[C@@H](Cc1cccc2ccccc12)C(=O)N[C@@H](CC(C)C)C(=O)N[C@@H](CO)C(=O)N1CCC[C@H]1C(=O)N[C@@H](CCC(=O)O)C(=O)N[C@@H](Cc1c[nH]cn1)C(=O)N[C@@H](CCC(N)=O)C(=O)N[C@@H](CCCCN)C(=O)N[C@@H](C)C(=O)N[C@@H](CCC(N)=O)C(=O)N[C@@H](CCC(N)=O)C(=O)N[C@@H](CCCNC(=N)N)C(=O)N[C@@H](CCCCN)C(=O)N[C@@H](CCC(=O)O)C(=O)N[C@@H](CO)C(=O)N[C@@H](CCCCN)C(=O)N[C@@H](CCCCN)C(=O)N1CCC[C@H]1C(=O)N1CCC[C@H]1C(=O)N[C@@H](C)C(=O)N[C@@H](CCCCN)C(=O)N[C@@H](CC(C)C)C(=O)N[C@@H](CCC(N)=O)C(=O)N1CCC[C@H]1C(=O)N[C@@H](CCCNC(=N)N)C(=O)O [Analog 3] (H-[Sar]S[Dap](Decanoyl)[1Nal]LSPEHQKAQQRKESKKPPAKLQPR-OH; N-terminus and C-terminus assumed) | – | – | affinity for GHS-R1a compared with ghrelin (human GHS-R1a receptor): higher affinities for GHS-R1a than ghrelin; % of ghrelin binding (human GHS-R1a receptor): 176%; maximal effect at 5 mg/kg on food intake (fed C57BL/6 male mice): 220.3 % of Dpr^3ghr; ED50 (250 min after injection), effect on food intake (fed C57BL/6 male mice): 0.64 mg/kg
CCCCCCCCCC(=O)NC[C@H](NC(=O)[C@H](CO)NC(=O)CNC)C(=O)N[C@@H](CC1CCCCC1)C(=O)N[C@@H](CC(C)C)C(=O)N[C@@H](CO)C(=O)N1CCC[C@H]1C(=O)N[C@@H](CCC(=O)O)C(=O)N[C@@H](Cc1c[nH]cn1)C(=O)N[C@@H](CCC(N)=O)C(=O)N[C@@H](CCCCN)C(=O)N[C@@H](C)C(=O)N[C@@H](CCC(N)=O)C(=O)N[C@@H](CCC(N)=O)C(=O)N[C@@H](CCCNC(=N)N)C(=O)N[C@@H](CCCCN)C(=O)N[C@@H](CCC(=O)O)C(=O)N[C@@H](CO)C(=O)N[C@@H](CCCCN)C(=O)N[C@@H](CCCCN)C(=O)N1CCC[C@H]1C(=O)N1CCC[C@H]1C(=O)N[C@@H](C)C(=O)N[C@@H](CCCCN)C(=O)N[C@@H](CC(C)C)C(=O)N[C@@H](CCC(N)=O)C(=O)N1CCC[C@H]1C(=O)N[C@@H](CCCNC(=N)N)C(=O)O [Analog 5] (H-[Sar]S[Dap](Decanoyl)[Cha]LSPEHQKAQQRKESKKPPAKLQPR-OH; N-terminus and C-terminus assumed) | – | – | affinity for GHS-R1a compared with ghrelin (human GHS-R1a receptor): higher affinities for GHS-R1a than ghrelin; % of ghrelin binding (human GHS-R1a receptor): 110%; maximal effect at 5 mg/kg on food intake (fed C57BL/6 male mice): 204.5 % of Dpr^3ghr; ED50 (250 min after injection), effect on food intake (fed C57BL/6 male mice): 1.02 mg/kg
XSXXLSPEHQKAQQRKESKKPPAKLQPR (sarcosine (Sar) at position 1; diaminopropionic acid N-decanoyl (Dpr-N-dec) at position 3; 1-naphtylalanine (1-Nal) at position 4, Synthetic ghrelin analog) [ghrelin analog no. 3, (Sar)S(Dpr-N-dec)(1-Nal)LSPEHQKAQQRKESKKPPAKLQPR] | 176 | 0.65 | Ca^2+ - EC50 [nM] (intracellular calcium mobilization, Fluo-4AM) [1]: 18.6 nM; IP1 - EC50 [nM] (inositol phosphate accumulation, IP-One HTRF) [1]: 2.08 nM
GSXFLSPEHQKAQQRKESKKPPAKLQPR (diaminopropionic acid (Dpr) bearing octanoyl at position 3, Synthetic ghrelin analog) [Dpr^3ghrelin] | 169 | 0.68 | IP1 - EC50 [nM] (inositol phosphate accumulation, IP-One HTRF) [1]: 16.3 nM
GSS(Octanoyl)FLSPEHQKAQQRKESKKPPAKLQPR [Ghrelin] | 100 | – | –

Continued, in another order:

% of ghrelin binding [2] [%] | Ki [2] [nM] | Molecule | further results
19 | 6.09 | XSXFLSPEHQKAQQRKESKKPPAKLQPR (sarcosine (Sar) at position 1; diaminopropionic acid N-octanoyl (Dpr-N-oct) at position 3; Lys 24 N-palmitoyl (K(N-palm)), Synthetic ghrelin analog) [ghrelin analog no. 7, (Sar)S(Dpr-N-oct)FLSPEHQKAQQRKESKKPPAK(N-palm)LQPR] | –
34 | 3.38 | [Sar]S[Dap](Myristoyl)FLSPEHQKAQQRKES [ghrelin analog no. 18, (Sar)S(Dpr-N-myr)FLSPEHQKAQQRKES] | –
5 | 23.3 | XSXXLSPEHQKAQQRKESKKPPAKLQPR (not fully specified; sarcosine (Sar) at position 1; diaminopropionic acid N-octanoyl (Dpr-N-oct) at position 3; naphtylalanine (Nal) at position 4; Lys 24 N-palmitoyl (K(N-palm)), Synthetic ghrelin analog) [ghrelin analog no. 9, (Sar)S(Dpr-N-oct)(Nal)LSPEHQKAQQRKESKKPPAK(N-palm)LQPR] | –
76 | 1.51 | XSXFLSPEHQKAQQRKESKKPPAKLQPR (sarcosine (Sar) at position 1; diaminopropionic acid N-9-decenoyl (Dpr-N-9-decen) at position 3, Synthetic ghrelin analog) [ghrelin analog no. 12, (Sar)S(Dpr-N-9-decen)FLSPEHQKAQQRKESKKPPAKLQPR] | –
2 | 51 | [Sar]S[Dap](Myristoyl)FLSPEHQKAQQRK(Palmitoyl)ES [ghrelin analog no. 16, (Sar)S(Dpr-N-myr)FLSPEHQKAQQRK(N-palm)ES] | –
